Experiments:
Biotin-huCGRPaSA = target: T1, Biotin-huCGRPaSA (human, not fully specified; biotin (position not given)); assay: ELISA, supernatant; relative to chimeric C245
T1 construct: exact construct ('aSA') not explained; also called Biotin CGRPaSA; full-length (1-37) CGRP
T1 peptide: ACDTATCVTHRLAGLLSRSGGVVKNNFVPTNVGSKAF
Outline: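 Plates coated with biotin-CGRPaSA at 1.0 μg/mL (90 min, 37°C) and blocked with 2% BSA. Humanized antibodies and chimeric C245 reference, 2.5-fold serial dilutions from 1000 ng/mL, bound 60 min at 37°C. Detection by HRP anti-human IgG (Fc), TMB 15 min, read at 450/620 nm.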

CGRP antigen = assay: cell-based or functional assay

Binder	Relative binding activity, % (Biotin-huCGRPaSA) [%]	IC50 (CGRP antigen) [µg/mL]	relative activity (%) vs Ref(TEVA) (CGRP antigen) [%]
hu71 (antibody, V domains shown, 1F5 HC-4/1F5 LC1-2) VH: QVQLVQSGSELKKPGASVKVSCKASGYTFTDFNMHWVRQAPGQGLEWMGYIYPYNGDVVYNQNFTNRFVLSVDSSSSTAYLQISSLKAEDTAVYYCAREGLGGYWGQGTLVTVSS VL: EIVLTQSPATLSLSPGERATLSCKASQNIDFDGYAYMNWYQHKPGQAPRVLIYSVFNLESGIPARFSGSGSGTDFTLTISSLEPEDFAVYYCQQSHEVPYTFGQGTKLEIK	120	0.0404	77
hu89 (antibody, V domains shown, 1F5 HC-5/3E5 LC-1) VH: QVQLVQSGAEVKKPGASVKVSCKASGYTFIDFNMHWVRQAPGQRLEWMGYIYPYNADVVYNQDFTNRVTLTVDTSSSTAYMELSSLRSEDTAVYYCAREGLGGYWGQGTLVTVSS VL: DIVLTQSPDSLAVSLGERATINCKASQNIDYDGYTYLNWYQQKPGQPPKVLIYSIFNLESGVPDRFSGSGSGTDFTLTISSLQAEDVAVYYCQQSNEVPYTFGQGTKLEIK	112	0.0979	48
hu90 (antibody, V domains shown, 1F5 HC-5/3H10 LC2-1) VH: QVQLVQSGAEVKKPGASVKVSCKASGYTFIDFNMHWVRQAPGQRLEWMGYIYPYNADVVYNQDFTNRVTLTVDTSSSTAYMELSSLRSEDTAVYYCAREGLGGYWGQGTLVTVSS VL: DIVLTQSPDSLAVSLGERATINCKASQNIDYGGYSYMNWYQQKPGQPPKVLIYSVFNLESGVPDRFSGSGSGTDFTLTISSLQAEDVAVYYCQQSNEAPYTFGQGTKLEIK	102	0.058	53
hu151 (antibody, V domains shown, 3E5 HC-1/1F5 LC1-4) VH: QVQLVQSGAEVKKPGASVKVSCKTSGYTFTDYNMHWVRQAPGQRLEWMGYISPYNGGTAYNQKFKFRVTLTVDTSSSTAYMELSSLRSEDTAVYYCAREGLGGYWGQGTLVTVSS VL: DIVLTQSPDSLAVSLGERATINCKASQNIDFDGYAYMNWYQHKPGQPPKVLIYSVFNLESGVPDRFSGSGSGTDFTLTISSLQAEDVAVYYCQQSHEVPYTFGQGTKLEIK	119	0.0677	48
hu45 (antibody, V domains shown, 1F5 HC-2/1F5 LC1-2) VH: QVQLVQSGAEVKKPGASVKVSCKASGYTFTDFNMHWVRQAPGQRLEWMGYIYPYNGDVVYNQNFTNRVTLTVDTSSSTAYMELSSLRSEDTAVYYCAREGLGGYWGQGTLVTVSS VL: EIVLTQSPATLSLSPGERATLSCKASQNIDFDGYAYMNWYQHKPGQAPRVLIYSVFNLESGIPARFSGSGSGTDFTLTISSLEPEDFAVYYCQQSHEVPYTFGQGTKLEIK	119	0.108	33
hu87 (antibody, V domains shown, 1F5 HC-5/2B8 LC2-1) VH: QVQLVQSGAEVKKPGASVKVSCKASGYTFIDFNMHWVRQAPGQRLEWMGYIYPYNADVVYNQDFTNRVTLTVDTSSSTAYMELSSLRSEDTAVYYCAREGLGGYWGQGTLVTVSS VL: DIVLTQSPDSLAVSLGERATINCQASQNIDGNTYMNWYQQKPGQPPKVLIYSIFNLESGVPDRFSGSGSGTDFTLTISSLQAEDVAVYYCQQSNDYPYTFGQGTKLEIK	138	0.124	38
hu84 (antibody, V domains shown, 1F5 HC-5/1F5 LC1-2) VH: QVQLVQSGAEVKKPGASVKVSCKASGYTFIDFNMHWVRQAPGQRLEWMGYIYPYNADVVYNQDFTNRVTLTVDTSSSTAYMELSSLRSEDTAVYYCAREGLGGYWGQGTLVTVSS VL: EIVLTQSPATLSLSPGERATLSCKASQNIDFDGYAYMNWYQHKPGQAPRVLIYSVFNLESGIPARFSGSGSGTDFTLTISSLEPEDFAVYYCQQSHEVPYTFGQGTKLEIK	111	0.256	19
hu129 (antibody, V domains shown, 2B8 HC1-2/3H10 LC2-1) VH: QVQLVQSGAEVKKPGASVKVSCKASGYTFTDYNMHWVRQAPGQGLEWMGNIYPYNGGTVYNQKFNNRVTLTVDTSSSTAYMELRSLRSDDTAVYYCAREGLGGYWGQGTLVTVSS VL: DIVLTQSPDSLAVSLGERATINCKASQNIDYGGYSYMNWYQQKPGQPPKVLIYSVFNLESGVPDRFSGSGSGTDFTLTISSLQAEDVAVYYCQQSNEAPYTFGQGTKLEIK	117	0.088	39
hu128 (antibody, V domains shown, 2B8 HC1-2/3E5 LC-1) VH: QVQLVQSGAEVKKPGASVKVSCKASGYTFTDYNMHWVRQAPGQGLEWMGNIYPYNGGTVYNQKFNNRVTLTVDTSSSTAYMELRSLRSDDTAVYYCAREGLGGYWGQGTLVTVSS VL: DIVLTQSPDSLAVSLGERATINCKASQNIDYDGYTYLNWYQQKPGQPPKVLIYSIFNLESGVPDRFSGSGSGTDFTLTISSLQAEDVAVYYCQQSNEVPYTFGQGTKLEIK	117	0.109	28
hu32 (antibody, V domains shown, 1F5 HC-1/1F5 LC1-2) VH: QVQLVQSGAEVKKPGASVKVSCKASGYTFIDFNMHWVRQAPGQRLEWMGYIYPYNGDVVYNQNFTNRVTLTVDTSSSTAYMELSSLRSEDTAVYYCAREGLGGYWGQGTLVTVSS VL: EIVLTQSPATLSLSPGERATLSCKASQNIDFDGYAYMNWYQHKPGQAPRVLIYSVFNLESGIPARFSGSGSGTDFTLTISSLEPEDFAVYYCQQSHEVPYTFGQGTKLEIK	116	0.137	26
hu154 (antibody, V domains shown, 3E5 HC-1/3E5 LC-1) VH: QVQLVQSGAEVKKPGASVKVSCKTSGYTFTDYNMHWVRQAPGQRLEWMGYISPYNGGTAYNQKFKFRVTLTVDTSSSTAYMELSSLRSEDTAVYYCAREGLGGYWGQGTLVTVSS VL: DIVLTQSPDSLAVSLGERATINCKASQNIDYDGYTYLNWYQQKPGQPPKVLIYSIFNLESGVPDRFSGSGSGTDFTLTISSLQAEDVAVYYCQQSNEVPYTFGQGTKLEIK	121	0.0905	36
hu167 (antibody, V domains shown, 3E5 HC-2/3E5 LC-1) VH: QVQLVQSGAEVKKPGASVKVSCKASGYTFTDYNMHWVRQAPGQRLEWMGYISPYNGGTAYNQKFKFRVTLTVDTSSSTAYMELSSLRSEDTAVYYCAREGLGGYWGQGTLVTVSS VL: DIVLTQSPDSLAVSLGERATINCKASQNIDYDGYTYLNWYQQKPGQPPKVLIYSIFNLESGVPDRFSGSGSGTDFTLTISSLQAEDVAVYYCQQSNEVPYTFGQGTKLEIK	101	0.125	26
hu193 (antibody, V domains shown, 3E5 HC-4/3E5 LC-1) VH: QVQLVQSGAEVKKPGASVKVSCKTSGYTFTDYNMHWVRQAPGQRLEWMGYISPYNAGTAYNQKFKFRVTLTVDTSSSTAYMELSSLRSEDTAVYYCAREGLGGYWGQGTLVTVSS VL: DIVLTQSPDSLAVSLGERATINCKASQNIDYDGYTYLNWYQQKPGQPPKVLIYSIFNLESGVPDRFSGSGSGTDFTLTISSLQAEDVAVYYCQQSNEVPYTFGQGTKLEIK	100	0.0775	42
hu100 (antibody, V domains shown, 2A2 HC-1/2B8 LC2-1) VH: QVQLVQSGAEVKKPGASVKVSCKASGYTFTDYNMHWVRQAPGQRLEWMGYVYPYNGGSAYNQKFKSRVTLTVDTSSSTAYMELSSLRSEDTAVYYCAREGLGGYWGQGTLVTVSS VL: DIVLTQSPDSLAVSLGERATINCQASQNIDGNTYMNWYQQKPGQPPKVLIYSIFNLESGVPDRFSGSGSGTDFTLTISSLQAEDVAVYYCQQSNDYPYTFGQGTKLEIK	133	0.11	28
hu131 (antibody, V domains shown, 2B8 HC1-3/1A2 LC2-1) VH: QVQLVQSGAEVKKPGASVKVSCKASGYTFTDYNMHWVRQAPGQGLEWMGNIYPYNAGTVYNQKFNNRVTLTVDTSSSTAYMELSRLRSDDTAVYYCAREGLGGYWGQGTLVTVSS VL: DIVLTQSPASLAVSPGQRATITCKASQNIDYDGYAYLNWYQQKPGQPPKVLIYSVFNLESGVPARFSGSGSGTDFTLTINPVEANDTANYYCQQSNEFPYTFGQGTKLEIK	107	0.0425	80
hu58 (antibody, V domains shown, 1F5 HC-3/1F5 LC1-2) VH: QVQLVQSGAEVKKPGASVKVSCKASGYTFTDFNMHWVRQAPGQGLEWMGYIYPYNGDVVYNQNFTNRVTLTVDTSSSTAYMELRSLRSDDTAVYYCAREGLGGYWGQGTLVTVSS VL: EIVLTQSPATLSLSPGERATLSCKASQNIDFDGYAYMNWYQHKPGQAPRVLIYSVFNLESGIPARFSGSGSGTDFTLTISSLEPEDFAVYYCQQSHEVPYTFGQGTKLEIK	113	0.0619	50
hu145 (antibody, V domains shown, 3E5 HC-1/1A2 LC2-2) VH: QVQLVQSGAEVKKPGASVKVSCKTSGYTFTDYNMHWVRQAPGQRLEWMGYISPYNGGTAYNQKFKFRVTLTVDTSSSTAYMELSSLRSEDTAVYYCAREGLGGYWGQGTLVTVSS VL: DIVLTQSPASLAVSPGQRATITCKASQNIDYDGYAYLNWYQQKPGQPPKVLIYSVFNLESGVPARFSGSGSGTDFTLTINPVEADDTANYYCQQSNEFPYTFGQGTKLEIK	119	0.0978	35
hu136 (antibody, V domains shown, 2B8 HC1-3/1F5 LC1-2) VH: QVQLVQSGAEVKKPGASVKVSCKASGYTFTDYNMHWVRQAPGQGLEWMGNIYPYNAGTVYNQKFNNRVTLTVDTSSSTAYMELSRLRSDDTAVYYCAREGLGGYWGQGTLVTVSS VL: EIVLTQSPATLSLSPGERATLSCKASQNIDFDGYAYMNWYQHKPGQAPRVLIYSVFNLESGIPARFSGSGSGTDFTLTISSLEPEDFAVYYCQQSHEVPYTFGQGTKLEIK	101	0.124	28

— patent publication US20260125454A1 (SHANGHAI JUNSHI BIOSCIENCES, published 2026)
